Reference: patent publication US20120122765A1, “COMPOUNDS AND RELATED METHODS FOR MANIPULATING PARP-1-DEPENDENT CELL DEATH” (priority 2010, published 2012)
Residue numbers refer to the chain shown, from its start. “Also recorded” adds a separate entry of the source. Where a SMILES comes first, the peptide text is derived from it. The star is where a group is joined. Cbz = O=C(OCc1ccccc1)*; CH2F = FC*

What was measured:
[1] = test system: Hq cortical neurons; assay: NMDA excitotoxicity in Hq cortical neurons; type: cell-based, mouse
Method: HQ cortical neuron cells were transduced with lentivirus carrying WT-AIF-Flag or Pbm-AIF-Flag. Non-transduced neurons and GFP-lentivirus infected cells were used as negative controls. […] In those photos, blue indicates Hoechst 33342 staining and red indicates propidium iodide staining. […] The cytotoxicity in these Hq cortical neurons was measured at 24 hours, 36 hours, and 48 hours after NMDA (500 μM for 5 min) treatment, and the data for this is reported in the graph of FIG. 18B.

[2] = test system: Hq MEFs; assay: MNNG cytotoxicity in Hq MEFs; type: cell-based, mouse; conditions: 24 hours after MNNG 500 μM for 15 min
Method: Further, the effect WT-AIF-Flag or Pbm-AIF-Flag on Hq MEF cell viability was determined 24 hours after MNNG (500 μM for 15 min) cytotoxicity with and without zVAD (100 μM), and the results of three trials is reported in FIG. 17B.

[3] = test system: DNA; assay: DNA retardation assay; type: binding; conditions: DNA (200 ng), 30 minutes
Method: AIF binding-mediated DNA mobility retardation was performed as described by H. Cande et al. (Nat Struct Biol, 2002). Recombinant His-tagged AIF (10 μg or 25 μg) was incubated with 1 kb DNA molecular weight marker (obtained from Fermentas) for 30 minutes at room temperature and loaded on 2.5% agarose gel prestained with ethidium bromide (1 μg/ml). Mobility shift was visualized under the Alpha Innotech UV illuminator.
Further, a DNA retardation assay of His-WT-AIF and His-Pbm-AIF was conducted by incubating both with DNA (200 ng) for 30 minutes, using BSA as a negative control.

[4] = test system: PAR; assay: nitrocellulose saturation binding experiments; conditions: result in words
Text: Applicants thereafter repeated the experiments using both wild type and mutant AIFm peptides spanning only amino acids 567-592 instead of full length AIFm and obtained results consistent with those using full-length AIF. […] The double amino acid mutant Dm (corresponding to only amino acids 567-592 of AIF-Dm so as to consist of SEQ. ID NO. 16) bound PAR. […] Thus, it is preferred in embodiments of the invention when conducting genetic manipulations to convert at least three target basic amino acids in the PBM to hydrophobic amino acids.
The PAR polymer binding properties of the mutant Pbm-AIF was then measured using full-length recombinant His-WT-AIF and His tagged Pbm-AIF (“His-Pbm-AIF”) via a series of nitrocellulose saturation binding experiments. Similar experiments were also conducted for the shorter peptides Dm and Tm in comparison to WT. FIG. 10B through FIG. 10D comprise charts reporting data from these various experiments. With regard to the shorter peptides, Applicants determined that the binding affinity constant (“Kd”) and maximum binding capacity (“Bmax”) of these AIF mimetic peptides and the results are reported in the chart of FIG. 10B. […] FIG. 10D comprises a Scatchard plot (95% confidence interval) of the results.

[5] = NADH oxidase activity of AIF; type: biochemical; conditions: compared to His-WT-AIF
Method: Unless otherwise set forth herein, the determination of NADH Oxidase Activity and FAD binding of AIF in the various examples below was performed using the following materials and procedures. AIF's NADH oxidase activity was determined as previously described by M. Miramar et al. (J Biol Chem, 2001). In brief, the NADH oxidase activity was measured at room temperature in substrate solution containing 250 μM NADH in air-saturated 50 mM Tris-HCl, pH 8.0. The decrease in absorbance at OD340 nm was monitored right after the addition of recombinant His-tagged AIF into the substrate solution. In situ redox activity of recombinant His-tagged AIF was performed as previously described by J. Gagne et al. (Nucleic Acids Res, 2008). […] FAD binding to AIF was monitored at 13 μM concentration of His-tagged AIF by wave length scanning ranging from 250-800 nm using Beckman Coulter DU800 UV/Vis spectrophotometer.
Independent of its role in parthanatos, AIF has NADH (the reduced form of nicotinamide adenine dinucleotide) oxidase activity, binds to FAD (flavin adenine dinucleotide) and DNA, and causes nuclear condensation. To determine whether the triple amino acid mutation found in Pbm-AIF interferes with these properties, Applicants assessed the NADH oxidase activity, FAD-binding capacity, and DNA-binding capacity of full-length His-WT-AIF and His-Pbm-AIF. […]

[6] = FAD binding by spectrophotometric wave length scanning; conditions: His-Pbm-AIF versus His-WT-AIF
Method: Unless otherwise set forth herein, the determination of NADH Oxidase Activity and FAD binding of AIF in the various examples below was performed using the following materials and procedures. AIF's NADH oxidase activity was determined as previously described by M. Miramar et al. (J Biol Chem, 2001). In brief, the NADH oxidase activity was measured at room temperature in substrate solution containing 250 μM NADH in air-saturated 50 mM Tris-HCl, pH 8.0. The decrease in absorbance at OD340 nm was monitored right after the addition of recombinant His-tagged AIF into the substrate solution. In situ redox activity of recombinant His-tagged AIF was performed as previously described by J. Gagne et al. (Nucleic Acids Res, 2008). The AIF protein was separated on a 10% native gel and then the gel was briefly washed in distilled water. The gel was equilibrated in 2,2′-Di-p-nitrophenyl-5-5′-diphenyl-3,3′ (3-3′-dimethoxy-4-4′difenilen)tetrazolium chloride (“NBT”) solution for 20 minutes in the dark followed by the addition of 1 mM NADH to NBT solution to reduce NBT. FAD binding to AIF was monitored at 13 μM concentration of His-tagged AIF by wave length scanning ranging from 250-800 nm using Beckman Coulter DU800 UV/Vis spectrophotometer.
FAD binding of His-WT-AIF and His-Pbm-AIF was determined by spectrophotometric wave length scanning of purified proteins. […]

[7] = test system: PAR; assay: co-immunoprecipitation with PAR in HeLa cells; type: cell-based
Method: The following experiment was performed to confirm whether AIF in fact binds to PAR in intact cells. Applicants exposed HeLa cells stably transduced with lentivirus C-terminal Flag-tagged mouse wild type AIF (WT-AIF-Flag) to MNNG, a DNA alkylating agent that activates PARP-1 and kills cells primarily through parthanatos. […] FIG. 2A comprises two side by side black and white photos of representative gels obtained by Applicants, showing the impact of MNNG upon these HeLa cells (left photo being HeLa cells without MNNG, and right photo being HeLa cells 2 hours after MNNG treatment at 50 μM for 15 min). […] FIG. 2B is a chart reporting the data regarding the relative intensity of the interaction pre and post MNNG for these experiments (*** indicates p<0.001).

[8] = test system: PAR; assay: co-immunoprecipitation with PAR in Hq cortical neurons
Method: For co-immunoprecipitation, the post-nuclear cell extracts, which is the fraction prepared from whole cell lysates after removing nuclear proteins, were isolated in hypotonic buffer as previously described by S. Andrabi et al., and then incubated overnight with an antibody against PAR in the presence of protein A/G Sepharose (obtained from Santa Cruz Biotechnology, of Santa Cruz, Calif.), followed by immunoblot analysis with mouse anti-Flag antibody (obtained from Sigma). The proteins were separated on denaturing polyacrylamide gel electrophoresis (SDS-PAGE) and transferred to nitrocellulose membrane. […] After washing, the immune complexes were detected by the SuperSignal West Pico Chemiluminescent Substrate. The integrity of the nuclear and postnuclear subcellular fractions was determined by monitoring histone and MnSOD immunoreactivity, respectively.
To determine whether Pbm-AIF fails to bind to PAR in cultured cortical neurons, neuronal cultures were transduced by lentivirus with WT-AIF-Flag or Flag-tagged Pbm-AIF (“Pbm-AIF-Flag”). […] AIF was translocation to the nucleus for each neuron culture was monitored 2 hours after administration of NMDA (500 μM NMDA for 5 minutes). […]

[9] = test system: mitochondria of HeLa cells; assay: in vitro AIF release from mitochondria of HeLa cells; conditions: purified PAR, transiently transfected HeLa cells
Method: (§1) Unless otherwise set forth herein, mitochondria isolation and in vitro AIF release assays as referenced in the examples below were performed using the following materials and procedures. Mitochondria were prepared from HeLa cells and cortical neurons as follows by harvesting cells, re-suspending them in 2 ml MIB buffer (10 mM HEPES, pH 7.4, 300 mM sucrose, 1 mM EGTA), and homogenizing by 60 strokes with B type Dounce homogenizer. Nuclei were pelleted at 750×g for 5 minutes and mitochondria were spun down at 3,000×g for 10 minutes. Isolated mitochondria were dissolved in a minimum volume of sucrose buffer (10 mM HEPES, pH 7.4, 300 mM sucrose) and protein concentration was adjusted to 2 mg/ml. […] In vitro AIF release was carried out at room temperature for 30 minutes in assay buffer (20 mM HEPES, pH 7.4, 125 mM KCl, 2 mM K2HPO4, 4 mM MgCl2, 5 mM succinate, 2 mM rotenone, 3 μM ATP and 1 μM ADP) in the presence of 100 nM PAR and 1 mg/ml isolated mitochondria. […]
(§2) Next, Applicants used Hq cortical neurons transduced with WT-AIF-Flag or Pbm-AIF-Flag lentiviruses to determine whether PAR plays a direct role in mitochondrial AIF release. […] Three days after lentivirus infection, mitochondria were isolated and exposed to purified PAR to elicit in vitro AIF release by incubation with PAR for 30 minutes, and the levels of AIF were determined in the mitochondria and in the supernatant.

[10] = test system: Hq mouse cortical neuronal cultures; assay: AIF translocation to the nucleus in Hq cortical neurons; type: cell-based
Method: Unless otherwise set forth herein, immunocytochemistry, immunohistochemistry and confocal microscopy as referenced in the examples entailed the following materials and procedures. […] AIF was visualized by 2 μg/ml mouse anti-Flag/Cyt AffiniPure Donkey Anti-Mouse IgG or rabbit anti-AIF/Cy3 AffiniPure Donkey Anti-Rabbit IgG. Immunohistochemistry was performed using the antibody against Flag. Immunofluorescence analysis thereafter was carried out by using a LSM510 confocal laser scanning microscope (obtained from Carl Zeiss Microlmaging) as described by H. Wang et al. (J. Neurosci, 2004).
Again, AIF translocation to the nucleus was monitored two hours after NMDA (500 μM, 5 minutes) treatment sufficient to initiate parthanatos in wild-type cells.

[11] = test system: Hq mice; assay: NMDA excitotoxicity in striatum of Hq mice
Method: 1 μl Lentivirus (5×1010 T.U./ml) carrying WT-AIF-Flag, Pbm-AIF-Flag, or GFP was injected into striatum on both sides of the brain (rostral, 0.4 mm; lateral+/−1.7 mm; ventral 3.5 mm from bregma), and 1 μl AAV2 (1×1013 T.U./ml) carrying WT-AIF-Flag, Pbm-AIF-Flag or GFP was injected into CA1 in hippocampi on both sides of the brain (posterior, 2.0 mm; lateral+/−1.5 mm; ventral 1.5 mm from bregma) using a stereotactic frame (Kopf) (0.02 ml/min). The needle was left in place for an additional 8 minutes after injection. One week after the first injection, 20 nmol NMDA or normal saline in 0.8 μl was injected into the right and left striatum (0.02 μl/min), respectively. The needle was left in place for an additional 8 minutes after injection. Lesion volumes were assessed at 48 hours, 60 hours, or 168 hours after NMDA administration. At the indicated time point after the second injection, the mice were deeply anesthetized, and then perfused with saline and 4% paraformaldehyde. After postfixation and freezing in 20% glycerol-PBS, brain sections (30 μm) were obtained for Nissl staining and immunohistochemistry analysis.
Applicants next assessed whether replacement of WT-AIF-Flag or Pbm-AIF-Flag through lentiviral transduction would restore the sensitivity of Hq mice to NMDA excitotoxicity. […]

[12] = test system: mitochondria isolated from cortical neurons; assay: in vitro AIF release from mitochondria of Hq cortical neurons; conditions: incubation with purified PAR for 30 minutes
Method: as §1, §2

[13] = test system: HeLa cells; assay: AIF nuclear translocation in HeLa cells after MNNG; type: cell-based; conditions: MNNG 50 μM for 15 minutes, confocal image analysis
Method: Unless otherwise set forth herein, immunocytochemistry, immunohistochemistry and confocal microscopy as referenced in the examples entailed the following materials and procedures. For immunocytochemistry, cells were fixed 2 hours after treatment with 4% paraformaldehyde, permeabilized with 0.05% Triton X-100, and blocked with 3% bovine serum albumin in PBS. AIF was visualized by 2 μg/ml mouse anti-Flag/Cyt AffiniPure Donkey Anti-Mouse IgG or rabbit anti-AIF/Cy3 AffiniPure Donkey Anti-Rabbit IgG. Immunohistochemistry was performed using the antibody against Flag. Immunofluorescence analysis thereafter was carried out by using a LSM510 confocal laser scanning microscope (obtained from Carl Zeiss Microlmaging) as described by H. Wang et al. (J. Neurosci, 2004).

[14] = test system: Hq mice; assay: NMDA excitotoxicity in hippocampal CA1 region of Hq mice; type: in vivo, mouse; conditions: AAV2 in CA1, 60 hours after NMDA
Method: Seven days following virus injection, Applicants injected NMDA into the right CA1 region and saline into the left CA1 region, and then assessed CA1 lesion volume 60 hours later. […] FIG. 20B is an array of six representative Nissl staining photos taken 60 hours post NMDA injection, while FIG. 20C is a graph of the experimental data obtained for lesion volume percentages.

## CC(NC(=O)C(NC(=O)OCc1ccccc1)C(C)C)C(=O)NC(CC(=O)O)C(=O)CF (stereo not drawn) [zVAD, reference compound] (Cbz-Val-Ala-Asp-CH2F; configuration not given here)
[1]; DPQ (30 μM) or zVAD (100 μM) in addition to NMDA
  effect on NMDA-induced cortical neuron death: did not
[2]; zVAD 100 μM
  effect on MNNG-induced cell death: failed to influence MNNG-induced cell death in MEFs

B1: His-Pbm-AIF: His tagged Pbm-AIF (protein, UniProt Q9Z0X1 1-612, looked up, variant R588A K589A K592A)
chain: MFRCGGLAGAFKQKLVPLVRTVYVQRPKQRNRLPGNLFQQWRVPLELQMARQMASSGSSGGKMDNSVLVLIVGLSTIGAGAYAYKTIKEDQKRYNERVMGLGLSPEEKQRRAIASATEGGSVPQIRAPSHVPFLLIGGGTAAFAAARSIRARDPGARVLIVSEDPELPYMRPPLSKELWFSDDPNVTKTLQFRQWNGKERSIYFQPPSFYVSAQDLPNIENGGVAVLTGKKVVHLDVRGNMVKLNDGSQITFEKCLIATGGTPRSLSAIDRAGAEVKSRTTLFRKIGDFRALEKISREVKSITVIGGGFLGSELACALGRKSQASGIEVIQLFPEKGNMGKILPQYLSNWTMEKVKREGVKVMPNAIVQSVGVSGGRLLIKLKDGRKVETDHIVTAVGLEPNVELAKTGGLEIDSDFGGFRVNAELQARSNIWVAGDAACFYDIKLGRRRVEHHDHAVVSGRLAGENMTGAAKPYWHQSMFWSDLGPDVGYEAIGLVDSSLPTVGVFAKATAQDNPKSATEQSGTGIRSESETESEASEITIPPSAPAVPQVPVEGEDYGKGVIFYLRDKVVVGIVLWNVFNRMPIAAAIIADGEQHEDLNEVAKLFNIHED
modifications: full-length His tag
[3]
  DNA-binding properties: comparable
[4]
  PAR binding in saturation binding experiments: much less (and virtually linear) binding
[5]
  NADH oxidase activity: no significant change in NADH oxidase activity
[6]
  FAD binding properties: no significant difference

B2: WT-AIF-Flag: C-terminal Flag-tagged mouse wild type AIF, delivered by lentivirus, AAV2 or transfection (protein, UniProt Q9Z0X1 1-612, looked up)
chain: B1 chain with A588R, A589K, A592K
modifications: full-length C-terminal Flag tag
notes: C-terminal Flag-tagged mouse wild type AIF, delivered by lentivirus, AAV2 or transfection
[7]; 2 hours after MNNG 50 μM for 15 min
  change of interaction with PAR following MNNG treatment: significantly increased
[7]; postnuclear fractions, non-MNNG- and MNNG-treated HeLa cells
  co-immunoprecipitation with PAR: co-immunoprecipitated with PAR in resting cells
[8]; 2 hours after 500 μM NMDA for 5 minutes
  change of interaction with PAR following NMDA treatment: significantly increased
[8]; postnuclear fractions, non-NMDA- and NMDA-treated cultures
  co-immunoprecipitation with PAR: pulled down
[9]
  PAR-induced release from mitochondria: induced the release
[1]; lentivirus-transduced Hq cortical neurons, NMDA 500 μM for 5 min, 24, 36, 48 hours
  effect on susceptibility to NMDA excitotoxicity: restored Hq cortical neuron susceptibility to NMDA excitotoxicity
[10]; 100 nM staurosporine, 24 hours
  translocation to the nucleus after staurosporine: translocate from the mitochondria to the nucleus
[10]; two hours after NMDA (500 μM, 5 minutes), immunoblot of fractions or confocal image analysis
  translocation to the nucleus after NMDA: translocated to the nucleus; also recorded: observed in the nucleus
[11]; lentivirus in striatum, NMDA 20 nmol, 48 hours or 60 hours
  sensitivity to NMDA excitotoxicity (lesion volume): restored sensitivity to NMDA excitotoxicity
[11]; lentivirus-injected Hq mice, WT-AIF-Flag with one exception
  survival after the NMDA injection: < 168 h
[2]; Hq MEFs
  effect on MNNG-induced cell death: restored their susceptibility to MNNG toxicity
[12]
  PAR-induced release from mitochondria: induced the release
[13]
  nuclear translocation after MNNG: translocated to the nucleus 4 hours following MNNG treatment
[14]
  CA1 lesion volume: large lesion volume
